The supplement of paper PMC12042874
± gives the uncertainty stated by the source.

Assay: amyloid nucleation score (Sup35N fusion, yeast selection) (log enrichment); library NNK1; higher = more nucleation; inactive = no reads after selection
Outline: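 Nucleation score: DiMSum log enrichment of output over input reads, centred on the mode score of non-aggregating sequences. Only sequences with at least 100 input reads were kept. Reads came from Illumina sequencing of plasmid inserts before and after 7 days of growth at 30°C without adenine and uracil, in psi-negative yeast expressing Sup35N fused to peptides of 20 random codons after 24 hours of induction with 100 μM copper sulfate.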

Row | Substance | amyloid nucleation score
1 | LAFKGAITPSDFGLNNRYRF | -0.037 ± 1.4
2 | DEWLDPEASERRRGPGDWAL | 0.55 ± 0.74
3 | FTNNVLNINVRG | 0.253 ± 1.2
4 | RIRVI | 0.544 ± 0.63
5 | VRAELFLTLPKGTQADALAV | -0.166 ± 0.67
6 | WFYTVARPNVSSSLESRTEP | 0.137 ± 0.22
7 | RLFDVMTITYTRSLSSPSCD | 0.405 ± 1.2
8 | GFGQAGGPSGESY | 0.722 ± 0.75
9 | LFCIERWMSNCFG | 0.112 ± 0.75
10 | LPEEDG | inactive
11 | DELGAMMRIFSFSCNP | -0.147 ± 1.1
12 | VEGRRFDINAWRDWTKGVR | -0.238 ± 0.3
13 | IWDASKVGSYAELHTLM | 0.744 ± 0.33
14 | MNPGG | -0.026 ± 0.21
15 | IWCVFIQWLCSRRVERQSCR | 4.31 ± 0.11
16 | PTDRVVLNCM | inactive
17 | LFRSSKSIRSLLSFCSICMF | 5.33 ± 0.076
18 | KGVHGYCRRIM | inactive
19 | YVASLYQYFYLLIKIDCVFF | -0.824 ± 0.97
20 | FETDNIDPHGYSFEYDASPA | -0.25 ± 0.43
21 | IDMLFPFCCVALRSHRSLEG | 0.722 ± 0.46
22 | LVSTYGEIQKLHGYLLGMLG | 0.002 ± 0.42
23 | SVYSVAFR | 0.184 ± 0.78
24 | MMDNLVYQRYTCTF | 0.448 ± 0.79
25 | HSATGQIGRALLTSSCVCL | inactive

Row | Substance | amyloid nucleation score
26 | RWVTSLRPNLDLS | 0.869 ± 0.52
27 | SYVIGNTGGSIKSEARGWDI | 0.071 ± 0.35
28 | RIENDGLEMLGIINQQSCGS | 4.01 ± 0.11
29 | TTEHAK | -0.263 ± 0.2
30 | ANGADCYSLSKTEYYYGKTL | -0.129 ± 1.6
31 | STTVSIYWCRWGGSSLHDV | 0.141 ± 1.4
32 | TSGHNVIPRGTVSSVVRILY | -0.498 ± 0.36
33 | FCLVMEFM | 0.606 ± 0.4
34 | GKVFVCSIVYSIRMSITSRI | inactive
35 | SDSIVNKKIVRWYRVFRIGC | 1.19 ± 0.51
36 | IKVQASQDP | 9.252 ± 0.05
37 | VVISMTTMKVFMLVYTMDFM | 0.046 ± 0.21
38 | RGCRGSRQSVGSKR | -0.166 ± 0.31
39 | MLMLSGVF | -0.782 ± 0.53
40 | CSAMPAFWAGHRSGASLHER | 0.017 ± 0.4
41 | NCGSVFFYGPIVGFHRLGLV | 0.967 ± 0.44
42 | HGKYQGTDRYAETGSISGGT | -0.395 ± 0.37
43 | LNRVEYS | 6.843 ± 0.068
44 | WFWIMIFRHCNVIL | 0.404 ± 0.5
45 | LFNSYIAVGVKKTSSEVMQR | 0.385 ± 0.55
46 | RTWAEWCLVLVSGFGSGAML | 0.086 ± 0.54
47 | VSHIAPRWPLSRTIRETQRM | 0.479 ± 1.2
48 | AIVNMVLIHKERTVSVLIRA | -0.296 ± 0.58
49 | SMYKMDMSLSTWCWFAWHDH | -0.37 ± 0.45
50 | RIANQ | -0.086 ± 0.51

Row | Substance | amyloid nucleation score
51 | VLTWFDCYLICLYTRTSLRI | 0.365 ± 0.41
52 | YSMIPKITSKP | 0.028 ± 0.29
53 | YYWVFCFFA | 7.47 ± 0.079
54 | NCERVTDYELIRGSSILKVV | 0.311 ± 0.73
55 | SGKLCWLCVNCVILGSCKSL | -0.442 ± 0.73
56 | ARSSK | -0.081 ± 0.23
57 | VWCRFERDTISKLCASWGRR | -0.237 ± 1.9
58 | KLYGLVFFLVYGNDGSKRDL | 0.779 ± 0.36
59 | VSFRTLYGRI | -0.187 ± 0.27
60 | GKSILVVSFARKLF | -0.18 ± 1.2
61 | SVENNTAPICNTKSSVSDSL | 0.852 ± 0.93
62 | KHLYVR | -0.752 ± 0.56
63 | RMSCAHDDHPIYWSCT | -0.622 ± 0.98
64 | FQFESHW | 1.85 ± 0.24
65 | VWMRVKIGGVWC | 1.58 ± 0.47
66 | VDLGRSKWCLTMYESYENGR | -0.127 ± 0.3
67 | LEQFMTRYRSDIVYCCDSGS | inactive
68 | PPLVHSAHYVMKILKSCN | -1.5 ± 2.7
69 | RLSIS | inactive
70 | LMLTGRD | -0.462 ± 1.2
71 | HSCTTLPL | -0.461 ± 0.79
72 | KVLLR | 0.725 ± 0.36
73 | TWDSPVPG | 0.208 ± 0.29
74 | QIFYSFTLYCNRNGWRDVFL | 0.269 ± 0.59
75 | RACLQRWPNMRITCC | -0.005 ± 1.2

Row | Substance | amyloid nucleation score
76 | RWWSWCSFTSSIFYCYLLCA | 2.2 ± 0.13
77 | NTVQNSMG | inactive
78 | GSPLWLVVPVPGEHVSSLSL | -0.047 ± 0.36
79 | WVPGITVKMRYGPESIVDWR | 0.565 ± 1.1
80 | VKIKEKFKA | -0.189 ± 0.42
81 | TRFLNDIVMSIDSSIIDPTC | 0.809 ± 0.7
82 | GFWSRSGSYQLICIYFGGYG | -0.296 ± 0.4
83 | CTKCYPGVLYYFDCSGPGTR | -0.51 ± 0.65
84 | LMHASHFFVGKMFLL | 0.266 ± 0.28
85 | TSVNMVIYILLVNFMKFLVG | 1.37 ± 0.45
86 | ELTNTFTV | -0.335 ± 0.37
87 | YSLEFSSFMLFLTCLVSYNY | -0.457 ± 0.4
88 | VYCVCYLWLKVVHKSLDTLS | 2.23 ± 0.079
89 | NGGAPSGNSGFKYSCKGWFV | -0.452 ± 0.52
90 | FATQTVAACVQCLKTRSDVF | 0.029 ± 1.1
91 | ALNSQSGFKFERSMYLLVIG | 1.17 ± 0.43
92 | ICGNSSTEASGL | 0.039 ± 0.56
93 | GLDRTHYPFALNGCLLSTVS | 0.676 ± 0.55
94 | VVVVKLQVQCDGESMSACLG | -0.495 ± 1.5
95 | TLLNDIFLLCCDSTSNDLMC | 1.56 ± 0.43
96 | RFIFIQRVNRVFLQDSWKMV | 6.39 ± 0.075
97 | HPIEWSKVSDNIRRQSGCCG | 0.754 ± 0.33
98 | SVWIKSST | -0.285 ± 1.4
99 | FFCMKGKILIINALLEIDVG | 0.079 ± 0.34
100 | NRANSVVGQACRKSVIRNRF | -0.144 ± 0.32

Row | Substance | amyloid nucleation score
101 | LMKYWYDVHRNESGITSNNI | -1.26 ± 0.42
102 | GKSKAAQFN | -0.318 ± 0.31
103 | VGDWFSLVENWVVWSFSLIC | -1.89 ± 2.1
104 | LYSKGIPMACAQVVVYLNER | 6.49 ± 0.055
105 | MGRRRAPRGGFILRYGCPCR | -0.039 ± 0.73
106 | FRWNLQAWQEVSGAGQRAVV | -0.014 ± 0.76
107 | VGNVRPVFDTALTTWRRCCF | 0.223 ± 0.49
108 | YNLYS | -0.626 ± 1.1
109 | RPDALGN | -0.97 ± 0.64
110 | KMLVGHS | 0.087 ± 0.83
111 | YCMRFVQ | 1.52 ± 0.49
112 | GFPVVAEHVVEFKLV | 0.093 ± 0.7
113 | GFYRAERYSRFMRAVGRLSN | -0.771 ± 0.76
114 | RSQFWHFQWWTKSHNIMGLD | 0.803 ± 1.1
115 | VEIYGCTSPDQWSVANSCTA | 0.047 ± 0.36
116 | VWENQLVWMVWWWEGTGS | 0.527 ± 0.49
117 | QDKAVIANNRWTKMCGRLDC | 1 ± 0.59
118 | TTKSLSVSLGGHYYVTRVRR | 0.81 ± 0.83
119 | GFIKPILEQGRYHNESRVLL | 0.243 ± 0.58
120 | RCMDHCSLDIQVRVLCKVSV | -0.709 ± 0.66
121 | TSTSC | 0.223 ± 0.51
122 | WGQFYVLTSVLHYINQWH | -2.58 ± 2.7
123 | KNRRSCIMNIGRYWRVQMVI | -0.846 ± 0.68
124 | RALALEPNSI | inactive
125 | FKLIHAVNFVYLGYAFYAFF | 1.29 ± 0.38

Row | Substance | amyloid nucleation score
126 | ISGTLGSRVMGLSAWVRVSR | -0.114 ± 0.38
127 | GVLSIVVKSR | -2.2 ± 1.7
128 | GSWGVRVFHFFARSRP | 0.032 ± 0.79
129 | DEPMSDLALVFMYYTVYPGG | 0.638 ± 0.55
130 | LLYIRVADSRPGDLRWLSEV | -0.106 ± 0.5
131 | LFLNMNPVLDTIIPFGWSSV | -0.128 ± 0.56
132 | SVLWCPRCRYCKFAGVRTWK | -0.398 ± 0.97
133 | FSRDLLARGVDTPSVEFRSS | -0.362 ± 0.72
134 | CNFKIVSWVVNQVLFFSHFA | -1.37 ± 2.1
135 | SNRNAGRKTMGHLWHQE | 0.2 ± 0.42
136 | TEFERFFKRDGYWGSRSYSR | 0.221 ± 0.59
137 | ICVMS | inactive
138 | MDACCMFNVWLVSECGFRVH | 5.81 ± 0.064
139 | MSFDGVEYRTCNVYVSVTWG | -0.133 ± 0.77
140 | MYGLVLCIYVSHVVR | 1.54 ± 0.43
141 | LAWSEYLMCLTRCHPIAV | 0.414 ± 0.54
142 | TLCYYLVWRR | 0.076 ± 0.29
143 | SSCVRN | -0.153 ± 0.57
144 | SIGVFNCNCHRNYEHRYRYM | 1.22 ± 0.15
145 | QPILPSPIRWFEESMDLVWG | -0.542 ± 0.4
146 | QAVSRHNGSSVVTVRFKLSP | 1.49 ± 0.52
147 | KELCCRASSDLMLRWQVKVF | 0.027 ± 1.4
148 | LSVGLKVDDEDQRLTYFVTI | -0.614 ± 0.62
149 | TSSMCVFVSGNSEFVLWALE | 0.286 ± 0.51
150 | FSMTCYVWLITLAKMTRTFQ | 0.159 ± 0.73

Row | Substance | amyloid nucleation score
151 | GQAGGWTARGQSSDIDLGQR | -0.146 ± 0.63
152 | AMNRHGLWKSSVSRGILFFS | 0.129 ± 0.35
153 | LDHLVNDTVEILQYGAPSIH | 0.733 ± 0.88
154 | DIRVLTPLRITFHLKAQGLL | -0.266 ± 1.4
155 | GVWVGIICKINLKYAFR | 1.23 ± 0.34
156 | LSTTKAIALSYLYGQNVKWS | 0.092 ± 0.21
157 | SGWYDP | -0.523 ± 0.7
158 | LQPLLISIKRRFLHYVSQNM | -0.073 ± 0.66
159 | SITFRRSYTNM | 0.411 ± 0.67
160 | NILFCWMGTMYPLLLSAYGR | -0.793 ± 0.48
161 | RLISTGADCEVRISHIRSRN | 0.594 ± 0.48
162 | GFEWVRVYWWGSYVGKRMGT | -0.219 ± 0.91
163 | TCRFIGEYLRIRYT | 0.367 ± 0.58
164 | FKNVHFRNS | -1.69 ± 1.3
165 | EMWRYRRVGIPRLA | 0.358 ± 0.92
166 | ENSPLK | 0.493 ± 0.4
167 | GSHWPYDGWWISYLWFHLR | 0.858 ± 0.38
168 | RFVWVMSYGPSTYILHVWFV | 0.248 ± 0.39
169 | RARDV | 0.167 ± 0.38
170 | NANINFSNTMQADVL | 0.116 ± 0.31
171 | SVTEVFYGKSVFLTFVFGIF | 0.292 ± 0.31
172 | IICFVVISWTRFLMSQKCFC | -0.143 ± 0.35
173 | CFDVQ | 2.29 ± 0.61
174 | VFKCVNFS | inactive
